Molecular target: T1, BRD2 (Bromodomain-containing protein 2) (UniProt P25440 1-801, limits assumed)
T1 construct: also called Brd2 protein
Assay: co-immunoprecipitation and immunoblotting, time course
Procedure: Particularly, the antibody targeting RUNX3 (5G4) (Cat #ab40278) was obtained from Abcam (Cambridge, UK), and the antibody was diluted 1:3000. BRD2 (M01; 1:1000; Cat #H00006046-M01, Abnova, Taipei City, Taiwan) was used for immunoblotting and immunoprecipitation. Transient transfection was performed in all cell lines using lipofectamine plus reagent and lipofectamine (Invitrogen). Cell lysates were incubated with an appropriate monoclonal or polyclonal antibody (2 μg of antibody/500 μg of lysate sample) at 4° C. for 3 hours, followed by incubation with protein G-Sepharose beads (Amersham Pharmacia Biotech, Piscataway, N.J., USA). For the detection of endogenous proteins at 4° C. for 1 hour, the lysate was incubated with an appropriate monoclonal or polyclonal antibody (1:1000˜1:3000) at 4° C. for 6 to 12 hours, and then protein G-Sepharose beads (Amersham Pharmacia Biotech) were […] at 4° C. for 3 hours. The immune precipitate was digested on SDS-polyacrylamide gel electrophoresis (SDS-PAGE) gel and transferred to a PVDF membrane (Millipore, Billerica, Mass., USA). The membrane was blocked, immunoblotted with an appropriate antibody, treated with ECL solution (Amersham Pharmacia Biotech), and visualized in Amersham™ Imager 600 (GE Healthcare, Chicago, Ill., USA).

T1 sequence (P25440 whole entry): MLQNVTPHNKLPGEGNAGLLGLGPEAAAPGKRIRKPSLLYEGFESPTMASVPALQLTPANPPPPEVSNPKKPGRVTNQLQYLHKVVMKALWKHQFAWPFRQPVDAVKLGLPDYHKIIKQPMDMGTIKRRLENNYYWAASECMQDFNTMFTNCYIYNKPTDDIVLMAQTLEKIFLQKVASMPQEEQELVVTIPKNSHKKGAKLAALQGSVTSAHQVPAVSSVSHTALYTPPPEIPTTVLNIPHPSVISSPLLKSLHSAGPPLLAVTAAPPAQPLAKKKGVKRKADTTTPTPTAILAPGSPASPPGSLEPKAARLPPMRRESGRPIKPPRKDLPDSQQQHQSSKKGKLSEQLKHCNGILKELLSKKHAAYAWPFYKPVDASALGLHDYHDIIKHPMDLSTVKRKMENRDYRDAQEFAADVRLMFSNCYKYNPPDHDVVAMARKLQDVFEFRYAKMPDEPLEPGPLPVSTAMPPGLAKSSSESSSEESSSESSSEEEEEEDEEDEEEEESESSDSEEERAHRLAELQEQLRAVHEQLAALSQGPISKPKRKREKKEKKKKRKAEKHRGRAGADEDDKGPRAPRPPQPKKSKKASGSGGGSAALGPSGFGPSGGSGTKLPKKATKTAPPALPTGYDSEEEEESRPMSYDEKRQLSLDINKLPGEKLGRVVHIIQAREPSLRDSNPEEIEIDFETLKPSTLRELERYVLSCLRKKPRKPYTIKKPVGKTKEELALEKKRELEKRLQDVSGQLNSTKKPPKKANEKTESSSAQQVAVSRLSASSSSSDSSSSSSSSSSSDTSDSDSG

complex maintenance activity, fold against wild-type Runx3: ≥ 10 times
B1: modified protein in which the 356th serine of Runx3 is substituted with alanine (other, UniProt Q13761 1-415, looked up)
chain: MRIPVDPSTSRRFTPPSPAFPCGGGGGKMGENSGALSAQAAVGPGGRARPEVRSMVDVLADHAGELVRTDSPNFLCSVLPSHWRCNKTLPVAFKVVALGDVPDGTVVTVMAGNDENYSAELRNASAVMKNQVARFNDLRFVGRSGRGKSFTLTITVFTNPTQVATYHRAIKVTVDGPREPRRHRQKLEDQTKPFPDRFGDLERLRMRVTPSTPSPRGSLSTTSHFSSQPQTPIQGTSELNPFSDPRQFDRSFPTLPTLTESRFPDPRMHYPGAMSAAFPYSATPSGTSISSLSVAGMPATSRFHHTYLPPPYPGAPQNQSGPFQANPSPYHLYYGTSSGSYQFSMVAGSSSGGDRAPTRMLASCTSSAASVAAGNLMNPSLGGQSDGVEADGSHSNSPTALSTPGRMDEAVWRPY
notes: also called Runx3 S356A; RUNX3 S356A
